Measured values as given in US10696728B2, “Polypeptides, related nucleic acids, and their uses for cell modulation and treatments” (priority 2014, dated 2020).
Entries after “also recorded” stand apart in the source; their conditions may differ.

Assays:
CaMKii = assay: Western blot for phosphorylation of CaMKii (threonine 286) in HEK cells; type: cell-based; settings: for level of p-CaMKii following RF stimulation: 36 hrs after transfection, FIG. 13
Method: HEK cells were transiently transfected with TRPv1.D5. 36 hrs after transfection, TRPv1.D5 cells were exposed to RF. At time points indicated, cells were lysed and protein analyzed by western blot for phosphorylation of CaMKii on threonine^286 (p-CaMKii) using phospho-specific antibodies (top panel). Control cells (0 min) had very little detectable p-CaMKii.

wild-type human TRPV1 = target: T1, wild-type human TRPV1 (Homo sapiens, UniProt Q8NER1); assay: Heart defects in chick embryos with wild-type human TRPV1 exposed to capsaicin; type: in vivo, chicken; settings: data not shown
T1 construct: expressed in transfected cells; host or cells: chick embryo (neural crest cells, in ovo)
T1 sequence (Q8NER1 whole entry): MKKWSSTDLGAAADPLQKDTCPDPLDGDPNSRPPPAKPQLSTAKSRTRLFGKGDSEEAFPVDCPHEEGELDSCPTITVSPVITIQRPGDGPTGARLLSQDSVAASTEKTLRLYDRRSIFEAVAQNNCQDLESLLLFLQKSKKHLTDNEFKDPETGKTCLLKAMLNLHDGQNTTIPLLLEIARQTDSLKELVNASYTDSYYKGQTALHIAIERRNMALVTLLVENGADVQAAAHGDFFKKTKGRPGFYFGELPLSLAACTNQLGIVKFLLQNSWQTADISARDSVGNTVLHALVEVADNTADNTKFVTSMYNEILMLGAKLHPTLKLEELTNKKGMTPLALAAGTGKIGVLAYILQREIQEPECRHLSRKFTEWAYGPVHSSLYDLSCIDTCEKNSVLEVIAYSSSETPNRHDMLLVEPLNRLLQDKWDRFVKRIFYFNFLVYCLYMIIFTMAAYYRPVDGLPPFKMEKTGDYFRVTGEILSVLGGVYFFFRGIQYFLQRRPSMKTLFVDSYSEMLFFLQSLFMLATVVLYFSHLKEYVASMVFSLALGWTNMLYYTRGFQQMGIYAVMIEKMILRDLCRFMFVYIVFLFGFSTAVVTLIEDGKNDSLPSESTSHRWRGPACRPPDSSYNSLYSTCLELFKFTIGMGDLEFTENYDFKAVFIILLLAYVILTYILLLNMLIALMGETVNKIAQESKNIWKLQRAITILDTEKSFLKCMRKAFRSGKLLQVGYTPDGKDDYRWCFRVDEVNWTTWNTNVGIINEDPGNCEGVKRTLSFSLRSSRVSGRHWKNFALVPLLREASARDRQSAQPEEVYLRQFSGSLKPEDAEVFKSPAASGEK

ferritin = assay: Co-immunoprecipitation of ferritin with Flag-tagged channel; type: binding, human
Chain of ferritin (P02794 whole entry): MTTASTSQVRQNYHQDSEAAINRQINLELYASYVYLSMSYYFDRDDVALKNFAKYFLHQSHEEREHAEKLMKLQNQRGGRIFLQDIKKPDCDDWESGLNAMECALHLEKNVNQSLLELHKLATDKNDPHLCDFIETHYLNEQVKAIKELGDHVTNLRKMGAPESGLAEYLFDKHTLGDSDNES

human ferritin = assay: Subcellular distribution of ferritin (FTH1-mCherry) in HEK-293 cells, confocal imaging; type: cell-based; settings: co-transfection with FTH1-mCherry in HEK-293, FIG. 9a/9b
Chain of human ferritin (P02794 whole entry, the tested form may be a part): as the sequence (P02794 whole entry) above
Excerpt: TRPV1.D5 redistributes endogenous ferritin to membranes. To visualize subcellular distribution of ferritin, we fused human ferritin with mCherry (FTH1-mCherry) at the C-terminal. Expression of FTH1-mCherry in HEK-293 yielded normal cytoplasmic distribution.

HEK-293 cells = assay: GCaMP fluorescence in mCherry+ HEK-293 cells in response to RF (190 MHz Helmholtz coil) or capsaicin; type: cell-based; settings: for GCaMP response to capsaicin: 1 μM capsaicin; for Ca2+ permeability following RF: RF stimulation 190 MHz, FIG. 12
Excerpt: A Helmholtz coil (190 MHz) was placed over a petri dish loaded with HEK-293 cells. RF power was supplied by a broadband (0-400 MHz) signal generator and amplified using a 10-W linear amplifier. We used GCaMP as an intracellular calcium indicator whose intensity is proportional to the amount of bound calcium. Using widefield fluorescent microscopy, we measured the change in GCaMP fluorescence in mCherry+ cells expressing TRPV1 and TRPV1.D5 in response to RF stimulation.

chick embryos = assay: Congenital heart defects in chick embryos with channel expression in neural crest cells; type: in vivo, chicken
HEK cells = assay: GCaMP fluorescence (Ca2+ influx) in HEK cells at three levels of applied RF field; type: cell-based; settings: for increase of green fluorescence emitted by GCAMP, all cells (both green and red) / increase of green fluorescence emitted by GCAMP, cells that visually became brighter: FIG. 11
Method: Expression of TRPv1.D5 in HEK cells: HEK cell expression was performed using transient transfection. Briefly, 1 μg of plasmid was mixed with Lipofectamine LTX with PLUS reagent (Life Technologies) following the manufacturer instructions. Expression was confirmed by standard western blot technique. Once expression was confirmed, pLVX.TRPv1.D5 was co-transfected with a plasmid containing GCaMP6 (addgene). GCaMP6 is a genetically encoded Calcium indicator. Its green fluorescence increases in the presence of increasing amounts of intracellular calcium. Green fluorescence was analyzed in HEK cells using MetaFluor Analyst Software (Molecular Devices) following manufacture instructions. Transfected cells were analyzed prior to RF exposure and during 10 minutes of RF exposure, as discussed below.
The intensity of red fluorescence protein (RFP) indicates the cells that expressed TRPV1.D5 with mCherry.
FIG. 11 quantifies the fluorescence intensity at three levels of applied electromagnetic fields. Red fluorescence emitted by mCherry (“Red Fluorescence”) increased by less than 6.5% at the end of experiments. Green fluorescence (GCaMP3) emitted by GCAMP in cells without TRPV1.D5 (“GCAMP-TRPV1 (green only, not red)”) increased by less than 6.9%.

[1] = test system: Neural Crest Cells (NCCs) in chicken embryos; assay: p-CaMKii immunostaining in neural crest cells of chick embryos after in ovo electroporation; type: in vivo
Excerpt: To determine if Ca^2+ flow could be modulated in vivo, we targeted wild-type TRPV1 or TRPV1.D5 expression to pre-migratory Neural Crest Cells (NCCs) in chicken embryos. NCC migration is dependent on control of Ca^2+ influx. (See, Hutson et al. 2003) NCCs transverse long distances through the embryo to enable proper heart development (e.g. outflow tracts). We utilized RF to increase Ca^2+ flow in NCCs while these cells were migrating out of the dorsal neural tube.
TRPV1.D5 was cloned into pLVX-EF1α-IRES-mCherry vectors. Plasmid DNA was then electroporated in ovo into the dorsal neural tube of chick embryos at Hamburger-Hamilton stage 9-11 to target premigratory NCCs. Twenty four hours later, expression of mCherry was confirmed and eggs were then subjected to no RF (FIG. 14a, control) or 10 minutes of RF (FIG. 14b and FIG. 14c). Immediately afterwards, embryos were removed and fixed in paraformaldehyde. These embryos were cryosectioned and stained for mCherry to identify TRPv1.D5+ cells and phosphorylated CaMKii (p-CaMKii) using an anti-Phospho-CaMKII antibody.

| Molecule | subcellular distribution of FTH1-mCherry (ferritin) (human ferritin) | GCaMP response to capsaicin (HEK-293 cells) | Ca2+ permeability following RF (HEK-293 cells) | increase of green fluorescence emitted by GCAMP, all cells (both green and red) (HEK cells; high RF (132 G)) [%] | increase of green fluorescence emitted by GCAMP, cells that visually became brighter (HEK cells; high RF (132 G)) [%] | increase of green fluorescence emitted by GCAMP, all cells (both green and red) (HEK cells; low RF (62 G)) [%] | increase of green fluorescence emitted by GCAMP, cells that visually became brighter (HEK cells; low RF (62 G)) [%] | also measured |
| --- | --- | --- | --- | --- | --- | --- | --- | --- |
| COc1cc(CNC(=O)CCCC/C=C/C(C)C)ccc1O [capsaicin, reference compound] |  |  |  |  |  |  |  | phosphorylation of CaMKii (CaMKii; 1 μm Capsaicin (Cap+), TRPv1.D5 transfected HEK cells): induced phosphorylation of CaMKii; replication of the defects caused by TRPV1.D5+RF (wild-type human TRPV1): replicated |
| TRPV1.D5: mouse TRPV1 linked to human domain 5 of kininogen 1 (SEQ ID NO:2), fusion protein expressed from pLVX vector (protein, Flag tag; mouse/human chimera TRPv1.D5) MEKWASLDSDESEPPAQENSCPDPPDRDPNSKPPPAKPHIFATRSRTRLFGKGDSEEASPMDCPYEEGGLASCPIITVSSVVTLQRSVDGPTCLRQTSQDSVSTGVETPPRLYDRRSIFDAVAQSNCQELESLLSFLQKSKKRLTDSEFKDPETGKTCLLKAMLNLHNGQNDTIALLLDIARKTDSLKQFVNASYTDSYYKGQTALHIAIERRNMALVTLLVENGADVQAAANGDFFKKTKGRPGFYFGELPLSLAACTNQLAIVKFLLQNSWQPADISARDSVGNTVLHALVEVADNTADNTKFVTNMYNEILILGAKLHPTLKLEELTNKKGLTPLALAASSGKIGVLAYILQREIHEPECRHLSRKFTEWAYGPVHSSLYDLSCIDTCEKNSVLEVIAYSSSETPNRHDMLLVEPLNRLLQDKWDRFVKRIFYFNFFVYCLYMIIFTTAAYYRPVEGLPPYKLNNTVGDYFRVTGEILSVSGGVYFFFRGIQYFLQRRPSLKSLFVDSYSEILFFVQSLFMLVSVVLYFSHRKEYVASMVFSLAMGWTNMLYYTRGFQQMGIYAVMIEKMILRDLCRFMFVYLVFLFGFSTAVVTLIEDGKNNSLPVESPPHKCRGSACRPGNSYNSLYSTCLELFKFTIGMGDLEFTENYDFKAVFIILLLAYVILTYILLLNMLIALMGETVNKIAQESKNIWKLQRAITILDTEKSFLKCMRKAFRSGKLLQVGFTPDGKDDFRWCFRVDEVNWTTWNTNVGIINEDPGNCEGVKRTLSFSLRSGRVSGRNWKNFALVPLLRDASTRDRHSTQPEEVQLKHYTGSLKPEDAEVFKDSMAPGEKCSRVSPPHTSMAPAQDEERDSGKEQGHTRRHDWGHEKQRKHNLGHGHKHERDQGHGHQRGHGLGHGHEQQHGLGHGHKFKLDDDLEHQGGHVLDHGHKHKHGHGHGKHKNKGKKNGKHNGWKTEHLASL | redistributed FTH1-mCherry to cell membranes | responded equally well | induced a transient increase in Ca^2+ permeability; also recorded: increases Ca^2+ ion modulation | 22.2 | 151.3 | 9.0 | 48.3 | co-immunoprecipitation of Ferritin-mCherry (ferritin; Flag-labelled channel, FIG. 9e, listed as Flag-TRPV1.D5): co-immunoprecipitates; pull-down of ferritin-mCherry and endogenous ferritin by immunoprecipitation (ferritin; data not shown): successfully pulled down both ferritin-mCherry and endogenous ferritin; time of peak p-CaMKii level following RF stimulation (CaMKii; TRPv1.D5+ HEK cells): 10 min; level of p-CaMKii following RF stimulation (CaMKii; TRPv1.D5+ HEK cells): induces p-CaMKii; level of p-CaMKii following RF stimulation (CaMKii; TRPv1.D5+ HEK cells, listed as TRPv1.D5): increases; heart defects on RF activation in cardiac neural crest cells (chick embryos; RF for 10 minutes, FIG. 15): results in heart defects; embryos that developed congenital heart defects (VSD, double outlet right ventricle, transposition of great vessels) (chick embryos; RF-treated, day 10 post experiments): ~60%; development of heart defects (chick embryos; non-RF treated): nor the non-RF treated TRPV1.D5 embryos developed any defects; GCAMP3 intensity on application of RF/EM fields (HEK cells; with vs without RF, FIG. 10): increased in the presence of RF; also recorded: increased GCAMP3 intensity; p-CaMKii in neural crest cells ([1]; 10 minutes of RF, FIG. 14b/14c): clear co-localization of the mutant channel and p-CaMKii; p-CaMKii in neural crest cells ([1]; no RF (control animals), FIG. 14a): did not observe detectable levels of p-CaMKii |
| TRPV1: Transient Receptor Potential channel Vanilloid 1, full length, amplified from mouse spinal cord cDNA; wild-type comparison channel without D5 (protein, Flag tag; Mouse TRPV1) MEKWASLDSDESEPPAQENSCPDPPDRDPNSKPPPAKPHIFATRSRTRLFGKGDSEEASPMDCPYEEGGLASCPIITVSSVVTLQRSVDGPTCLRQTSQDSVSTGVETPPRLYDRRSIFDAVAQSNCQELESLLSFLQKSKKRLTDSEFKDPETGKTCLLKAMLNLHNGQNDTIALLLDIARKTDSLKQFVNASYTDSYYKGQTALHIAIERRNMALVTLLVENGADVQAAANGDFFKKTKGRPGFYFGELPLSLAACTNQLAIVKFLLQNSWQPADISARDSVGNTVLHALVEVADNTADNTKFVTNMYNEILILGAKLHPTLKLEELTNKKGLTPLALAASSGKIGVLAYILQREIHEPECRHLSRKFTEWAYGPVHSSLYDLSCIDTCEKNSVLEVIAYSSSETPNRHDMLLVEPLNRLLQDKWDRFVKRIFYFNFFVYCLYMIIFTTAAYYRPVEGLPPYKLNNTVGDYFRVTGEILSVSGGVYFFFRGIQYFLQRRPSLKSLFVDSYSEILFFVQSLFMLVSVVLYFSHRKEYVASMVFSLAMGWTNMLYYTRGFQQMGIYAVMIEKMILRDLCRFMFVYLVFLFGFSTAVVTLIEDGKNNSLPVESPPHKCRGSACRPGNSYNSLYSTCLELFKFTIGMGDLEFTENYDFKAVFIILLLAYVILTYILLLNMLIALMGETVNKIAQESKNIWKLQRAITILDTEKSFLKCMRKAFRSGKLLQVGFTPDGKDDFRWCFRVDEVNWTTWNTNVGIINEDPGNCEGVKRTLSFSLRSGRVSGRNWKNFALVPLLRDASTRDRHSTQPEEVQLKHYTGSLKPEDAEVFKDSMAPGEK | cytoplasmic distribution was not altered | responded equally well | only TRPV1.D5 induced a transient increase | 22.2 | 151.3 | 9.0 | 48.3 | development of heart defects (chick embryos; with or without RF): Neither the TRPV1 embryos (with or without RF) nor the non-RF treated TRPV1.D5 embryos developed any defects |
